Key:
Experiment in all cases: HuProt protein array, F635 z-score
[1] = target: T1, Melanoma-associated antigen 3 (MAGE-A3) (human, UniProt P43357 1-314)
T1 construct: The array carries full-length recombinant human proteins expressed in S. cerevisiae; also called Human MAGE-A3
Text: (§1) Large scale protein arrays are versatile and sensitive platforms for antibody specificity evaluation. They can be used for the evaluation of protein binding or affinity reagents that are widely employed in research and clinical applications. The microarray used in our target identification experiment provides the largest number of unique, full-length, individually purified human proteins on a single microscope slide. This allows thousands of interactions to be profiled in a high-throughput manner. The hill-length recombinant proteins are expressed in the yeast S. cerevisiae, purified, and printed on glass slides in duplicate along with a set of control proteins (GST, BSA, histones, IgG, etc.). Such microarray is not restricted to a particular type of surface coating, although the default is glass coated with ultra-thin nitrocellulose film for the non-covalent, yet irreversible, capture of active proteins to the surface. Fourteen Protein arrays were used for the antibody cross-reactivity assay of the samples. The antibodies were probed at […] on the arrays and incubated at room temperature for 1 hour. After probing, the arrays were washed according to the protocol and probed with Alexa-647-anti-human IgG […] specific secondary antibodies under conditions optimized for signal detection. The antibody-antigen binding score was calculated for each protein represented on the array and expressed as z-scores.
(§2) Antibody samples are probed on native HuProt arrays at 1 μg/ml and incubated at room temperature for 1 hour. After probing, the arrays are washed according to the standard protocols and probed with Alexa-647-anti-human IgG Fc gamma specific secondary antibodies under conditions optimized for signal detection.
(§3) Z score is the average Z score of the duplicate spots of a given protein (each protein is printed in duplicate on a HuProt™ array). The Z score of each spot on a given array is calculated according to the equation: […]

[2] = target: T2, Alpha-taxilin (TXLNA) also known as interleukin-14A (human, UniProt P40222 1-546)
T2 construct: The array carries full-length recombinant human proteins expressed in S. cerevisiae; also called IL-14A; TXLNA/IL-14A
T2 sequence (P40222 whole entry): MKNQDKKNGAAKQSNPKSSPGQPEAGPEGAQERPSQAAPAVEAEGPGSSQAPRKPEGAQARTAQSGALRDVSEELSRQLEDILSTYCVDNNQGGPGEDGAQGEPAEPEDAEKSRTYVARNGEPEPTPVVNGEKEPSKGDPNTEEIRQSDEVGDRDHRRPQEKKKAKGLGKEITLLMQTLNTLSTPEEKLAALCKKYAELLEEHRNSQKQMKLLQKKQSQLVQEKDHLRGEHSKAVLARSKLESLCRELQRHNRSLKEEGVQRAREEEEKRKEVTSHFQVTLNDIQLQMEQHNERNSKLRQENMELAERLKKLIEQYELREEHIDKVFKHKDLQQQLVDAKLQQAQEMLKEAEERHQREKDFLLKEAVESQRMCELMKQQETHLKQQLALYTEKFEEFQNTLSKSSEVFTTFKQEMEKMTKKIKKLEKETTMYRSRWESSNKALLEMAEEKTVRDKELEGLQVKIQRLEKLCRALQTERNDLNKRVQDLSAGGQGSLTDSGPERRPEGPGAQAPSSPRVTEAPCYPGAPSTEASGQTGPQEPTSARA
Text: as §1, §2, §3

[3] = target: T3, Chromobox protein homolog 1 (CBX1) (human, UniProt P83916 1-185)
T3 construct: The array carries full-length recombinant human proteins expressed in S. cerevisiae; also called Human Chromobox protein homolog 1
T3 sequence (P83916 whole entry): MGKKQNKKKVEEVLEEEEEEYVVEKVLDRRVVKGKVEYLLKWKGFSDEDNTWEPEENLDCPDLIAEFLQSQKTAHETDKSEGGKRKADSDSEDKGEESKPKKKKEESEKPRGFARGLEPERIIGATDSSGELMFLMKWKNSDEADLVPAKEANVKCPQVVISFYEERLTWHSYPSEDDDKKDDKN
Text: as §1, §2, §3

[4] = target: T4, Inorganic pyrophosphatase (PPA1) (human, UniProt Q15181 2-289)
T4 construct: The array carries full-length recombinant human proteins expressed in S. cerevisiae; also called Human PPA1
T4 sequence: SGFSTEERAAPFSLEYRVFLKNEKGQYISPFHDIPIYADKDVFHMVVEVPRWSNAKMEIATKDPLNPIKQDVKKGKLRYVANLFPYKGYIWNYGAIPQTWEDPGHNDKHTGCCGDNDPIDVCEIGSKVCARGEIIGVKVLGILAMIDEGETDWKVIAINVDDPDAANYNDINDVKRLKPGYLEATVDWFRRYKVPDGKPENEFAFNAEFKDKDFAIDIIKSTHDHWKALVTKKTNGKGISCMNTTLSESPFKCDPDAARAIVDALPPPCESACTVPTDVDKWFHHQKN
Text: as §1, §2, §3

[5] = target: T5, Src homology 2 (SH2) domain containing inositol polyphosphate 5-phosphatase 1 (SHIP1) (human, UniProt Q92835 1-1189)
T5 construct: The array carries full-length recombinant human proteins expressed in S. cerevisiae, purified and printed on glass slides; also called INPP5D; INPP5D/SHIP1
T5 sequence: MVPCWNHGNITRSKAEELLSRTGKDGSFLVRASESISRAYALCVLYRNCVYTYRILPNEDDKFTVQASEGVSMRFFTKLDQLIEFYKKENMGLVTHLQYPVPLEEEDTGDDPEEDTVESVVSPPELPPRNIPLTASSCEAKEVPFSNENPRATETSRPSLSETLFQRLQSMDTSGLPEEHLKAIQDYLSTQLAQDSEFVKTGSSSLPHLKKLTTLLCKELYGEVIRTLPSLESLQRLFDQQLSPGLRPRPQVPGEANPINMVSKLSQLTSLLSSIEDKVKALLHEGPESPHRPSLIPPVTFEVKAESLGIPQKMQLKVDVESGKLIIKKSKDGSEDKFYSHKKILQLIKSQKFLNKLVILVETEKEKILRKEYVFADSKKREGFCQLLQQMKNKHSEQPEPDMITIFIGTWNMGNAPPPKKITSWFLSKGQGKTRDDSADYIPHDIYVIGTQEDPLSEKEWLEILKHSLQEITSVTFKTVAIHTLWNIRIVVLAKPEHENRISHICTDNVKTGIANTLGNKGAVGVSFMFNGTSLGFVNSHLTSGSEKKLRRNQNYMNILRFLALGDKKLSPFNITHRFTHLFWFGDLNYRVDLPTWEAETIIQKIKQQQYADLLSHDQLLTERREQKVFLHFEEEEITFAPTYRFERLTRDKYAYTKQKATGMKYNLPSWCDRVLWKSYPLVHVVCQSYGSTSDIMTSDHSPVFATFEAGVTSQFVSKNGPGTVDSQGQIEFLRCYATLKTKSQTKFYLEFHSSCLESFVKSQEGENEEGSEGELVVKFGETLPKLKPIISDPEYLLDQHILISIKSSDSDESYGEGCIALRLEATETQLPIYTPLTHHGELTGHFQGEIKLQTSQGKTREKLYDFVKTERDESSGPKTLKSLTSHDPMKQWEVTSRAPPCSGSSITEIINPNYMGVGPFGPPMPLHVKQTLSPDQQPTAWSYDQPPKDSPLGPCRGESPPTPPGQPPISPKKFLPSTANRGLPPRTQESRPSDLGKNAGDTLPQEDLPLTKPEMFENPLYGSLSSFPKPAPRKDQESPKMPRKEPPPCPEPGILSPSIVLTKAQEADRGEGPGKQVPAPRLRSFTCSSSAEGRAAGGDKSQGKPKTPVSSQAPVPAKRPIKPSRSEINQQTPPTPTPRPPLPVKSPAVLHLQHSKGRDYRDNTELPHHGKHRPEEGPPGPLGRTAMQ
Text: as §1, §2, §3

T1 sequence (P43357 whole entry): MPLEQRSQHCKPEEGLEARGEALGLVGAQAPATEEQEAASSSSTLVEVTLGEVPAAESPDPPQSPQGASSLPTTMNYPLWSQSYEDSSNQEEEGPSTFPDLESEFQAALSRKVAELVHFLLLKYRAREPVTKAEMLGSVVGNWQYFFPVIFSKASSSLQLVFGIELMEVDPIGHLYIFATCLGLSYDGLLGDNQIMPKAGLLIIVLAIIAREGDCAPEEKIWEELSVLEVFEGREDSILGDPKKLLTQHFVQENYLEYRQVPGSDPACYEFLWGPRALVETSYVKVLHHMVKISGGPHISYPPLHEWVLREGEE

binding result [1]: no binding (tested: 1 µg/ml)
binding result [2]: no binding (tested: 1 µg/ml)
binding result [3]: no binding (tested: 1 µg/ml)
binding result [4]: no binding (tested: 1 µg/ml)
binding result [5]: no binding (tested: 1 µg/ml)
B1: TMEL1004 (antibody, V domains shown)
VH: QITLKESGPTLVKPTQTLTLTCTFSGFSLNTPGVGVGWIRQPPGKALEWLALIYWDDDKRYRPSLESRLTITKDTSKNHVVLTMTNMDPVDTATYFCAHKNLQYSEWFDPWGQGTLVIVSS
VL: EMVLTQSPATLSLSPGERATLSCRASQSVSRNSLAWYQQRPGQTPRLLIYGASSRATGIPDRFSGSGSGTDFTLIISRLEPEDFAVYFCLQYDESPYTFGQGAKLEIKR
